We go through 1 substance from article PMC2115223.

In this assay the target is diphtheria toxin receptor (14.5-kD protein of Vero cells) (African green monkey (endogenous in Vero)). Nature of the assay: radioligand binding.
diphtheria toxin receptor (14.5-kD protein of Vero cells) (African green monkey (endogenous in Vero)), sequence (Q09118 20-208 limits assumed): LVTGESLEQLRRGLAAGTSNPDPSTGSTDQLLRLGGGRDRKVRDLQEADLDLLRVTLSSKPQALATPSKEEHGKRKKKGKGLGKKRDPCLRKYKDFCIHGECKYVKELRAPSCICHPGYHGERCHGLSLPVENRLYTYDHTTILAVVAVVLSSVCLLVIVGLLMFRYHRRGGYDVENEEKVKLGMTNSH

For CRM228 (natural protein), the fold less potent than nicked CRM197 in competition stood at 200 times.
